Experimental data as given in patent US20090081195A1, “Inhibitors of Ste20-like Kinase (SLK) and Methods of Modulating Cell Cycle Progression and Cell Motility” (OTTAWA HEALTH RESEARCH INSTITUTE, priority 2005, published 2009).

T1: SLK (Mus musculus, UniProt O54988)
T1 construct: made in house; host or cells: bacteria (IPTG-induced; pGEX-5X or 4T1)
T1 sequence (O54988 981-1233): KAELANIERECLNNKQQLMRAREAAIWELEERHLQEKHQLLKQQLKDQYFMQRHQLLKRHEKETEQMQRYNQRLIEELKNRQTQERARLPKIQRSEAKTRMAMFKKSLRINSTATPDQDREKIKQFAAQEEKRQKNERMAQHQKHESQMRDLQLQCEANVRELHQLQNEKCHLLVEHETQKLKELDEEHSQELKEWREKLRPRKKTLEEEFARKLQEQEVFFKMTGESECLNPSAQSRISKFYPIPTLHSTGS


Key:
[1] = biological target: T2, GST-tagged recombinant SLK (Mus musculus, UniProt O54988); assay: Recombinant SLK kinase assay on histone H1; format: biochemical, murine; settings: recombinant His-tagged Ldb added to GST-SLK, substrate histone H1
T2 construct: GST (N); made in house; host or cells: bacteria (IPTG-induced, pGEX vector)
T2 sequence (O54988 1-1202 isoform O54988-2): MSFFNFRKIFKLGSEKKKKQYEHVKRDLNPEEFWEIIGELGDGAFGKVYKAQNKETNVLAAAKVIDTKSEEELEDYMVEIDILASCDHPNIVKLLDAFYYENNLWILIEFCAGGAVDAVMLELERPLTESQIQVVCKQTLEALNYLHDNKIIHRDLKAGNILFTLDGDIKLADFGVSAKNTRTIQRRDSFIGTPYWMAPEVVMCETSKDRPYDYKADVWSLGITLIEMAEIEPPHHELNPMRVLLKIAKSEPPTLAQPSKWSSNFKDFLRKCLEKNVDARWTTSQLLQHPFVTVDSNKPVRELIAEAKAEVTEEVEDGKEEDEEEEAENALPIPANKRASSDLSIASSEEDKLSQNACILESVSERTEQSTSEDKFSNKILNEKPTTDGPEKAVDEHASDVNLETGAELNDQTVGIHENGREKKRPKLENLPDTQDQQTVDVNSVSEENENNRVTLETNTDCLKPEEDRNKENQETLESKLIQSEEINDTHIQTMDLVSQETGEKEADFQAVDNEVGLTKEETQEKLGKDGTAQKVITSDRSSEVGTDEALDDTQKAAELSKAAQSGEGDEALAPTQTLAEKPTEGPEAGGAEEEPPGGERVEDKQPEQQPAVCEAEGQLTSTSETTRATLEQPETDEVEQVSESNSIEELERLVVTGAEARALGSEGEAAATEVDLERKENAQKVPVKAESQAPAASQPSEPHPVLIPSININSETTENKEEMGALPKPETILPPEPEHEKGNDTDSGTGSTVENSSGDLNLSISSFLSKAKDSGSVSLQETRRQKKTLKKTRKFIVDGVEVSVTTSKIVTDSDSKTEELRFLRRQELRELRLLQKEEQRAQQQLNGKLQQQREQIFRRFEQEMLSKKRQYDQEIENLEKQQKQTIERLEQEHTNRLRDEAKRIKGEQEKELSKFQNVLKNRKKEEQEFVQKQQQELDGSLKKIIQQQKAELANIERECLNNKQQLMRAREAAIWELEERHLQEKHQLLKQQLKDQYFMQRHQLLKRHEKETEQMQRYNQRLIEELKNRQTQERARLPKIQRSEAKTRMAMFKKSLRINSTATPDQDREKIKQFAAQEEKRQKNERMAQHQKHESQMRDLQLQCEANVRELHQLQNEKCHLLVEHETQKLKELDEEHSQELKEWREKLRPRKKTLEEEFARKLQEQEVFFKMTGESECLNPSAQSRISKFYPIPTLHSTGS
From the text: (a-left panel) MEFs obtained from floxed-Ldb1 mice were generated and infected with recombinant adenovirus harbouring a GFP or Cre recombinase cDNA. […] (right panel) SLK was immunoprecipitated from lysates obtained from Ad-GFP or Ad-Cre infected cells. SLK precipitation efficiency and kinase activity was consistently greater in lysates from Cre-infected cells. In addition, Ldb2 association with the SLK complex was lost in cells lacking Ldb1 (bottom panel). (b) Ldb2 interacts with SLK kinase domain and ATH. […] (c) Ldb1/2 inhibit SLK kinase activity in vitro. Recombinant GST-tagged SLK was prepared and mixed with recombinant His-tagged Ldb2 (lane 2), His-tagged Ldb1 (lane 3) or both (lane 4) and assayed for kinase activity on histone H1. Addition of recombinant Ldb proteins inhibited SLK activity (d) Activation of SLK by scratch wounding is accompanied by a conformational change. Endogenous SLK complexes were immunoprecipitated from unscratched MEFs or 60 min post-wounding and subjected to trypsin digestion. Differential trypsin sensitivity was observed indicative of altered conformation.
Recombinant SLK was prepared by inducing an overnight culture of GST-SLK with IPTG and preparing GST SLK as described above. […]

SLK [2] = biological target: T1, SLK; assay: In vitro binding assay, GST-SLK fusions with [35S]-labeled Ldb; set-up: species or system murine; settings: GST pulldown, autoradiography
Procedure: (§1) GST fusion proteins were generated by induction of bacterial cultures with 1 mM isopropyl-beta-D-thiogalactopyranoside (IPTG, Sigma) for 2 hours. Bacteria were pelleted, resuspended in 1 ml bacterial lysis buffer (20% sucrose, 10% glycerol, 50 mM Tris-HCl pH 8.0, 2 mM MgCl2, 2 mM DTT, 10 μg/ml leupeptin, 10 μg/ml pepstatin, 10 μg/ml aprotinin, 1 mM phenylmethylsulphonylfluoride [PMSF] and 100 μM benzamidine) and sonicated on ice.
(§2) Glutathione sepharose beads (Amersham Pharmacia) were added to the cleared supernatants and bound GST fusions were collected by centrifugation, washed three times with NETN and subjected to binding assays. In vitro translated proteins were generated using the TNT quick coupled in vitro transcription translation kit (Promega) according to the manufacturer's instructions. Translated proteins were incubated with either GST or GST fusions in NETN buffer, washed with NETN and eluted from the beads by boiling in sample buffer. Proteins were fractionated by SDS-PAGE, the gels were stained with Coomassie brilliant blue (Sigma) to visualize the proteins, destained (30% methanol, 10% acetic acid), dried and subjected to autoradiography.

α-tubulin = assay: GST pulldown binding to α-tubulin; settings: in vitro
From the text: Co-localization of Rac1 (d), Paxillin (e) and Ldb1 (f) with SLK (a-c) in membrane ruffles of migrating fibroblasts on fibronectin (arrowhead). Note the absence of SLK in mature adhesions identified by Paxillin staining (e; arrow). […] (m) Ldb2 binds α-tubulin.

SLK [3] = biological target: T3, SLK (Mus musculus, UniProt O54988); assay: In vitro binding assay, GST-SLK fusions with [35S]-labeled Ldb; set-up: species or system murine; settings: carboxy-terminal deletion lacking the latter two thirds of the ATH domain
T3 construct: made in house; host or cells: bacteria (IPTG-induced; pGEX-5X or 4T1)
Procedure: as §1, §2
T3 sequence (O54988 1-950 isoform O54988-2): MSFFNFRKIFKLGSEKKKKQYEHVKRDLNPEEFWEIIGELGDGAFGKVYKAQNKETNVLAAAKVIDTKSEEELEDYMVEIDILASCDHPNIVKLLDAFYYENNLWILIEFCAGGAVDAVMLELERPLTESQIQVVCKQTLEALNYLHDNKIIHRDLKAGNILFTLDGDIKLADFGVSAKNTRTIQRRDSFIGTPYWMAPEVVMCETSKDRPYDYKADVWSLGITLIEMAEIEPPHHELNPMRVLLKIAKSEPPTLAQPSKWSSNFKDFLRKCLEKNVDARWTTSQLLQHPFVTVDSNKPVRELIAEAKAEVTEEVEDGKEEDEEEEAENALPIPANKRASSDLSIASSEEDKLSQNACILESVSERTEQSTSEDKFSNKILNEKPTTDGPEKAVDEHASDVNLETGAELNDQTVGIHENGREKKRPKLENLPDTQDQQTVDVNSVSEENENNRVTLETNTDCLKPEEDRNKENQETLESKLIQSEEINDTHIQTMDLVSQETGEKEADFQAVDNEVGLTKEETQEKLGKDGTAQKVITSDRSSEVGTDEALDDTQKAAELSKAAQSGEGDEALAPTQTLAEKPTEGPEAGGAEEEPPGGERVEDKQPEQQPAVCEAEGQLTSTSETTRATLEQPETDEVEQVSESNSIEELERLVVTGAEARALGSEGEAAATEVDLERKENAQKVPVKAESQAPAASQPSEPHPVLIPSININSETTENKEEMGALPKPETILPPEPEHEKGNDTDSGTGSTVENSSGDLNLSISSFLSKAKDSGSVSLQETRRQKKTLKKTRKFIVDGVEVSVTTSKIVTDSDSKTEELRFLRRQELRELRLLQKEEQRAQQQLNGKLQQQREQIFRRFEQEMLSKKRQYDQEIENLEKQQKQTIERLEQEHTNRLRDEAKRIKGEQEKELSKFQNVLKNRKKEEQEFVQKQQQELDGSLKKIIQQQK

SLK [4] = assay: as above; set-up: species or system murine; settings: deletions lacking the ATH domain, prolonged exposures
Procedure: as §1, §2

binding to SLK ATH domain (SLK 950-1202) (SLK [2]) | binding to α-tubulin (α-tubulin) | binding to SLK 1-950 (SLK [3]) | binding to GST-SLK-1-551, GST-SLK-1-373 (SLK [4]) | Molecule | SLK kinase activity [1]
indistinguishable from Ldb2 | not |  |  | Ldb1: LIM domain binding transcription co-factor; recombinant His-tagged or in vitro translated protein, SLK binding partner (protein, left off: large carriers) MLDRDVGPTPMYPPTYLEPGIGRHTPYGNQTDYRIFELNKRLQNWTEECDNLWWDAFTTEFFEDDAMLTITFCLEDGPKRYTIGRTLIPRYFRSIFEGGATELYYVLKHPKEAFHSNFVSLDCDQGSMVTQHGKPMFTQVCVEGRLYLEFMFDDMMRIKTWHFSIRQHRELIPRSILAMHAQDPQMLDQLSKNITRCGLSNSTLNYLRLCVILEPMQELMSRHKTYSLSPRDCLKTCLFQKWQRMVAPPAEPARQQPSKRRKRKMSGGSTMSSGGGNTNNSNSKKKSPASTFALSSQVPDVMVVGEPTLMGGEFGDEDERLITRLENTQFDAANGIDDEDSFNNSPALGANSPWNSKPPSSQESKSENPTSQASQ | reduced SLK activity
highest affinity | found to bind α-tubulin in vitro | moderate affinity | weak binding | Ldb2: LIM domain binding transcription co-factor, paralog of Ldb1; recombinant His-tagged or in vitro translated protein (protein, left off: large carriers, recombinant His-tagged or in vitro translated protein) MSSTPHDPFYSSPFGPFYRRHTPYMVQPEYRIYEMNKRLQSRTEDSDNLWWDAFATEFFEDDATLTLSFCLEDGPKRYTIGRTLIPRYFSTVFEGGVTDLYYILKHSKESYHNSSITVDCDQCAMVTQHGKPMFTKVCTEGRLILEFTFDDLMRIKTWHFTIRQYRELVPRSILAMHAQDPQVLDQLSKNITRMGLTNFTLNYLRLCVILEPMQELMSRHKTYNLSPRDCLKTCLFQKWQRMVAPPAEPTRQPTTKRRKRKNSTSSTSNSSAGNTTNSAGSKKKTPAASLSLATQVPDVMVVGEPTLMGGEFGDEDERLITRLENTQYDAANGMDDEEDFNNSPALGNNSPWNSKPPATQETKSENAPPQASQ | reduced SLK activity
